Measurements as given in patent US20210324359A1, “USE OF GRAM-NEGATIVE LYSIN-ANTIMICROBIAL PEPTIDE (AMP) POLYPEPTIDE CONSTRUCTS IN TREATING ENDOCARDITIS” (priority 2020, published 2021).

Legend:
[1] = tested on: carbapenem-resistant P. aeruginosa strains; assay: Resensitization of carbapenem-resistant strains, combinations with imipenem or meropenem (Tables 18-22); assay type: cell-based, Pseudomonas aeruginosa; conditions: for FICI: isolate WC-452
Description: Such resensitization may be determined by combining the present lysins or lysin-AMP polypeptide constructs with an antibiotic in a checkerboard assay as described herein. Antibiotic-resistant bacteria, such as carbapenem-resistant P. aeruginosa, are added to the lysin or lysin-AMP polypeptide construct combination. […] See Clinical and Laboratory Standards Institute (CLSI), CLSI. […] M100 Performance Standards for Antimicrobial Susceptibility Testing; 29th Edition. Clinical and Laboratory Standards Institute, Wayne, Pa., which is herein incorporated by reference in its entirety.
Up to seven carbapenem-resistant isolates were assessed. […] See Clinical and Laboratory Standards Institute (CLSI), CLSI. […] M100 Performance Standards for Antimicrobial Susceptibility Testing; 29th Edition. Clinical and Laboratory Standards Institute, Wayne, Pa.

[2] = tested on: Pseudomonas aeruginosa biofilm; assay: MBEC in CAA supplemented with […] human serum (Table 14); assay type: cell-based
Description: (§1) Biofilms are then washed and treated with e.g., a 2-fold dilution series of the lysin in TSBg at e.g., 37° C. for 24 hours. After treatment, wells are washed, air-dried at e.g., 37° C. and stained with e.g., 0.05% crystal violet for 10 minutes.
(§2) Materials and methods: MICs were determined by broth microdilution in media supplemented with human serum and pulmonary surfactant ([…]®; Myoderm Clinical Supplies). Minimal biofilm eradicating concentrations (MBECs) were determined using standard methods. […] Fluorescence microscopy was performed after LIVE/DEAD staining (ThermoFisher) and TEM was performed.

[3] = tested on: P. aeruginosa strain WC-453; assay: Time-kill assay in HEPES or CAA with 25% human serum (Tables 7, 8); assay type: cell-based, Pseudomonas aeruginosa
Description: Exponential phase bacteria were then pelleted and resuspended in 1/5 culture volume of 25 mM HEPES, pH 7.4 before a final adjustment to an optical density corresponding to a McFarland value of 0.5. […] All treatments were incubated at 37° C. with aeration. At time points before the addition of lysin (or buffer control) and at 1 hour and 3 hours intervals thereafter, culture samples were removed for quantitative plating on CAA agar plates.

P. aeruginosa strains = assay: Checkerboard synergy with meropenem in 25% CAA and […] human serum (Table 16); assay type: cell-based, Pseudomonas aeruginosa; conditions: for FICI value (Run #1), with meropenem / FICI value (Run #2), with meropenem: 25% CAA and […] human serum
P. aeruginosa isolates = assay: MIC against a range of isolates in CAA + […] human serum (Table 11); assay type: cell-based, Pseudomonas aeruginosa
[4] = tested on: outer membrane of P. aeruginosa (CFS 1292); assay: N-phenyl-1-napthylamine (NPN) uptake assay, outer membrane destabilization (Table 15); assay type: cell-based, Pseudomonas aeruginosa; conditions: NPN fluorescence, buffer = 100, lysin 100 μg/well
Description: The ability of gram-negative lysins to destabilize the outer membrane of P. aeruginosa was evaluated through the use of an N-phenyl-1-napthylamine (NPN) uptake assay. […] NPN was added to a final concentration of […]. […] Changes in fluorescence were recorded (excitation 1=350 nm; emission 1=420 nm) over two hours.

[5] = tested on: Pseudomonas aeruginosa strain CFS-1292 (meropenem resistant); conditions: strain CFS-1292; no added cations
Description: The activity of selected GN lysins and constructs in the presence of divalent cations was evaluated, and the impact of divalent cations at physiological concentrations was examined in the MIC assay format.

[6] = tested on: biofilms formed by P. aeruginosa strain ATCC 17646; conditions: strain ATCC 17646 biofilm
Description: as §1

P. aeruginosa = assay: MIC, modified CLSI broth microdilution in CAA medium without or with […] human serum (Table 4); assay type: cell-based, Pseudomonas aeruginosa; as to CAA/HuS MIC: CAA supplemented with 2.5% human serum
Description: 2015. […] Clinical and Laboratory Standards Institute, Wayne, Pa.

[7] = tested on: Pseudomonas aeruginosa strain CFS-1292 (meropenem resistant); assay: MIC in 25% CAA alone, with […] human serum or […] SURVANTA (Table 13); assay type: cell-based
Description: as §2

B1: GN351: lysin-AMP construct: TAGGTAGG linker and amurin peptide Ecp2 C-terminal to GN316 lysin (SEQ ID NO: 32) (protein)
chain: MAILKIGSKGLEVKNLQTSLNKIGFNLVADGIFGKATDNAVRAVQAGAGLVVDGIAGPKTMYAIRNAGESHQDHLTEADLIDAARELSVDLASIKAVNQVESRGTGFTKSGKIKTLFERHIMYKKLNAKFGQAKANALAQLYPTLVNAKAGGYTGGDAELERLHGAIAIDKDCAYESASYGLFQIMGFNCVICGYDNAEEMFNDFLTGERAQLMAFVKFIKADANLWKALKDKNWAEFARRYNGPAYAQNQYDTKLAAAYKSFSTAGGTAGGARSRRRMSKRSSRRSFRKYAKSHKKNFKARSMRGGIRL
**Q.** For B1, which “resensitization to carbapenems in synergistic combinations” value ([1]; imipenem (IPM) and meropenem (MEM), carbapenem-resistant isolates) is on record?
**A.** Its value is “reductions of IPM and MEM MICS to below breakpoint values”.

**Q.** What about the FICI ([1]; lysin + imipenem) of the same molecule?
**A.** The FICI was 0.156.

**Q.** And the FICI ([1]; lysin + meropenem)?
**A.** Its FICI is 0.188.

**Q.** And the “Antibiotic MIC / Lysin MIC, Alone” value ([1]; vs. WC-452 (Table 22))?
**A.** The value was 1.

**Q.** What about the “MBEC in CAA supplemented with […] human serum” value [2] of the same molecule?
**A.** Its value is 0.5 µg/mL.

**Q.** And the “bactericidal activity (CFU decrease of 3-Log10, 3 hours after the addition of lysin)” value ([3]; 10 μg/mL, enumerated lysins in CAA/HuS, general statement for HEPES and CAA/HuS)?
**A.** The value was “bactericidal activity”.

**Q.** What about the “CAA/HuS (Log10 CFU/mL), 1 hr” value ([3]; CAA + 25% human serum, lysin 10 μg/ml, 1 hr, WC-453) of the same molecule?
**A.** Its value is 4.6 Log10 CFU/mL.

**Q.** And the “CAA/HuS (Log10 CFU/mL), 3 hr” value ([3]; CAA + 25% human serum, lysin 10 μg/ml, 3 hr, WC-453)?
**A.** The value was less than 3.7 Log10 CFU/mL.

**Q.** What about the synergy with meropenem (P. aeruginosa strains; FICI less than or equal to 0.5 = potent synergy) of the same molecule?
**A.** The synergy with meropenem was “exhibited synergy with meropenem”.

**Q.** What about the “FICI value (Run #1), with meropenem” value (P. aeruginosa strains; strain CFS 1292) of the same molecule?
**A.** Its value is 0.1875.

**Q.** And the “FICI value (Run #2), with meropenem” value (P. aeruginosa strains; strain CFS 1292)?
**A.** The value was 0.219.

**Q.** And the “FICI value (Run #1), with meropenem” value (P. aeruginosa strains; strain CFS 1557 (PA19))?
**A.** Its value is 0.25.

**Q.** What about the “FICI value (Run #2), with meropenem” value (P. aeruginosa strains; strain CFS 1557 (PA19)) of the same molecule?
**A.** Its value is 0.292.

**Q.** And the “FICI value (Run #1), with meropenem” value (P. aeruginosa strains; strain CFS 1558 (PA20))?
**A.** Its value is 0.1562.

**Q.** What about the “FICI value (Run #2), with meropenem” value (P. aeruginosa strains; strain CFS 1558 (PA20)) of the same molecule?
**A.** The value was 0.177.

**Q.** And the “FICI value (Run #2), with meropenem” value (P. aeruginosa strains; strain CFS 1559 (PA21))?
**A.** The value was 0.177.

**Q.** And the “FICI value (Run #2), with meropenem” value (P. aeruginosa strains; strain CFS 1560 (PA22))?
**A.** Its value is 0.323.

**Q.** What about the “FICI value (Run #2), with meropenem” value (P. aeruginosa strains; strain CFS 1561 (PA23)) of the same molecule?
**A.** Its value is 0.240.

**Q.** What about the “FICI value (Run #2), with meropenem” value (P. aeruginosa strains; strain CFS 1562 (PA24)) of the same molecule?
**A.** Its value is 0.177.

**Q.** What about the “FICI value (Run #2), with meropenem” value (P. aeruginosa strains; strain CFS 1766 (ATCC 27853)) of the same molecule?
**A.** The value was 0.109.

**Q.** What about the “activity against P. aeruginosa isolates in human serum or SURVANTA” value (P. aeruginosa isolates; Tables 11 and 12) of the same molecule?
**A.** Its value is “active against a variety of P. aeruginosa isolates”.

**Q.** What about the “MIC, CAA + […] Human Serum” value (P. aeruginosa isolates; strain CFS 1109 (ATCC 17646)) of the same molecule?
**A.** Its value is 1 µg/mL.

**Q.** What about the “MIC, CAA + […] Human Serum” value (P. aeruginosa isolates; strain CFS 1292) of the same molecule?
**A.** Its value is 1 µg/mL.

**Q.** And the “MIC, CAA + […] Human Serum” value (P. aeruginosa isolates; strain CFS1539 (PA1))?
**A.** The value was 0.5 µg/mL.

**Q.** And the “MIC, CAA + […] Human Serum” value (P. aeruginosa isolates; strain CFS 1540 (PA2))?
**A.** The value was 0.5 µg/mL.

**Q.** What about the “MIC, CAA + […] Human Serum” value (P. aeruginosa isolates; strain CFS 1541 (PA3)) of the same molecule?
**A.** Its value is 0.5 µg/mL.

**Q.** What about the “MIC, CAA + […] Human Serum” value (P. aeruginosa isolates; strain CFS 1557 (PA19)) of the same molecule?
**A.** Its value is 4 µg/mL.

**Q.** And the “MIC, CAA + […] Human Serum” value (P. aeruginosa isolates; strain CFS 1558 (PA20))?
**A.** The value was 1 µg/mL.

**Q.** And the “MIC, CAA + […] Human Serum” value (P. aeruginosa isolates; strain CFS 1559 (PA21))?
**A.** The value was 2 µg/mL.

**Q.** What about the “MIC, CAA + […] Human Serum” value (P. aeruginosa isolates; strain CFS 1560 (PA22)) of the same molecule?
**A.** Its value is 2 µg/mL.

**Q.** What about the “MIC, CAA + […] Human Serum” value (P. aeruginosa isolates; strain CFS 1561 (PA23)) of the same molecule?
**A.** The value was 2 µg/mL.

**Q.** And the “MIC, CAA + […] Human Serum” value (P. aeruginosa isolates; strain CFS 1562 (PA24))?
**A.** The value was 2 µg/mL.

**Q.** What about the “MIC, CAA + […] Human Serum” value (P. aeruginosa isolates; strain CFS 1596 (PA26)) of the same molecule?
**A.** The value was 1 µg/mL.

**Q.** And the “MIC, CAA + […] Human Serum” value (P. aeruginosa isolates; strain CFS 1597 (PA27))?
**A.** Its value is 0.5 µg/mL.

**Q.** And the “MIC, CAA + […] Human Serum” value (P. aeruginosa isolates; strain CFS 1669 (PA41))?
**A.** Its value is 1 µg/mL.

**Q.** What about the “MIC, CAA + […] Human Serum” value (P. aeruginosa isolates; strain CFS 1674 (PA46)) of the same molecule?
**A.** Its value is 1 µg/mL.

**Q.** And the “MIC, CAA + […] Human Serum” value (P. aeruginosa isolates; strain CFS 1675 (PA47))?
**A.** The value was 0.5 µg/mL.

**Q.** What about the “MIC, CAA + […] Human Serum” value (P. aeruginosa isolates; strain CFS 1766 (ATCC 27853)) of the same molecule?
**A.** Its value is 2 µg/mL.

**Q.** And the “% RFU” value ([4]; 5 minutes)?
**A.** The value was 381 % RFU.

**Q.** What about the “% RFU” value ([4]; 10 minutes) of the same molecule?
**A.** Its value is 406 % RFU.

**Q.** And the “% RFU” value ([4]; 20 minutes)?
**A.** Its value is 407 % RFU.

**Q.** And the “% RFU” value ([4]; 40 minutes)?
**A.** The value was 386 % RFU.

**Q.** And the “% RFU” value ([4]; 60 minutes)?
**A.** The value was 383 % RFU.

**Q.** What about the “% RFU” value ([4]; 100 minutes) of the same molecule?
**A.** Its value is 338 % RFU.

**Q.** And the “MIC in 25% CAA” value [5]?
**A.** Its value is 1 µg/mL.

**Q.** And the MBEC [6]?
**A.** Its MBEC is 1 µg/mL.

**Q.** And the “CAA MIC” value (P. aeruginosa; CAA medium, no human serum)?
**A.** The value was 8000 µg/mL.

**Q.** And the “CAA/HuS MIC” value (P. aeruginosa; CAA supplemented with […] human serum)?
**A.** Its value is 125 µg/mL.

**Q.** And the “MIC in […] Survanta” value [7]?
**A.** The value was 4 µg/mL.

**Q.** What about the “MIC in human serum ([…]) in CAA” value [7] of the same molecule?
**A.** The value was 0.0625 µg/mL.

**Q.** What about the “activity in human serum and pulmonary surfactant” value [7] of the same molecule?
**A.** Its value is “active in human serum and pulmonary surfactant”.

**Q.** What about the “25% CAA MIC” value ([7]; media alone) of the same molecule?
**A.** The value was 1.
